The target in test [1] is Feline IL4R-ECD_C-HuFc_His6 (processed) (feline, biotinylated in the Octet assay of Example 10). Description: BLI (Octet): biotinylated feline IL4R-ECD_C-HuFc_His6 on streptavidin tips, Clone I 25 ug/mL, 1:1 model. The procedure: This finding was consistent with in vitro binding affinity measured by Octet Biosensor. Biotinylated feline IL4R-ECD_C-HuFc_His6 (SEQ ID NO: 111) was captured on streptavidin sensor tips. The association of Clone I antibody (25 μg/mL) and feline IL4R-ECD_C-HuFc_His6 was monitored for 600 seconds. Dissociation was monitored for 600 seconds. A buffer only blank curve was subtracted to correct for any drift. The data were fit to a 1:1 binding model using ForteBio™ data analysis software to determine the kₒₙ, koff, and the Kd. The buffer for dilutions and all binding steps was 20 mM phosphate, 150 mM NaCl, pH 7.2.
Sequence of Feline IL4R-ECD_C-HuFc_His6 (processed) (feline, biotinylated in the Octet assay of Example 10) (chain, as listed by the source limits assumed): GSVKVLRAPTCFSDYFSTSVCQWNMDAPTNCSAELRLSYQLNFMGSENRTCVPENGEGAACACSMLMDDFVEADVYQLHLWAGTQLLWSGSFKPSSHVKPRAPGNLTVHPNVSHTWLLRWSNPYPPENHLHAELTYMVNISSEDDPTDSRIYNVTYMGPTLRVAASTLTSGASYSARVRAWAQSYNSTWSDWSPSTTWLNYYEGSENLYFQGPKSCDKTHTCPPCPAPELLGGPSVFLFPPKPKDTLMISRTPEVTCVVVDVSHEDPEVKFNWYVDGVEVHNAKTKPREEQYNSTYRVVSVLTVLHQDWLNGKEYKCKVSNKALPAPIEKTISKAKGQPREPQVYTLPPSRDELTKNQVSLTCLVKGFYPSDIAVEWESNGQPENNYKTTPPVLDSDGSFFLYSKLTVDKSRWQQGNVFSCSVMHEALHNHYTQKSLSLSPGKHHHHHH
Background: BLI is a label-free optical method that tracks binding on a fibre tip over time.

For test [2], the target named is Canine/Human IL4R-ECD_C-HuFc_His6_Hybrid13 (canine/human hybrid). Description: Western blot, non-reducing, 293 supernatant concentrated 3-fold. (A western blot detects proteins with antibodies after separation by electrophoresis.)
Sequence of Canine/Human IL4R-ECD_C-HuFc_His6_Hybrid13 (canine/human hybrid) (chain, as listed by the source limits assumed): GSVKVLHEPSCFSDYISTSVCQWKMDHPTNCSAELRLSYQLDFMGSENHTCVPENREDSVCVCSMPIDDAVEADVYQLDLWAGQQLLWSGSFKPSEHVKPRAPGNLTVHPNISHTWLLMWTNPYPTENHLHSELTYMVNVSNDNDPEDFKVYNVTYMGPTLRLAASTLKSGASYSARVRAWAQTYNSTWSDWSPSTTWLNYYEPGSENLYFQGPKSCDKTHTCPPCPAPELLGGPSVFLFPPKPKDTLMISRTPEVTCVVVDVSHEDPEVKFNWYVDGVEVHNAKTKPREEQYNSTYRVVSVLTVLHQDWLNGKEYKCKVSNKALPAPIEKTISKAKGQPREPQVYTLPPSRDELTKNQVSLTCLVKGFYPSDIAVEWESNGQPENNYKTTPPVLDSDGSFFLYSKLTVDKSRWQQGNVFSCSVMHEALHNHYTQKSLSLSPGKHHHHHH
The target of test [3] is Canine/Human IL4R-ECD_C-HuFc_His6_Hybrid6 (canine/human hybrid). The description is as above.
Sequence of Canine/Human IL4R-ECD_C-HuFc_His6_Hybrid6 (canine/human hybrid) (chain, as listed by the source limits assumed): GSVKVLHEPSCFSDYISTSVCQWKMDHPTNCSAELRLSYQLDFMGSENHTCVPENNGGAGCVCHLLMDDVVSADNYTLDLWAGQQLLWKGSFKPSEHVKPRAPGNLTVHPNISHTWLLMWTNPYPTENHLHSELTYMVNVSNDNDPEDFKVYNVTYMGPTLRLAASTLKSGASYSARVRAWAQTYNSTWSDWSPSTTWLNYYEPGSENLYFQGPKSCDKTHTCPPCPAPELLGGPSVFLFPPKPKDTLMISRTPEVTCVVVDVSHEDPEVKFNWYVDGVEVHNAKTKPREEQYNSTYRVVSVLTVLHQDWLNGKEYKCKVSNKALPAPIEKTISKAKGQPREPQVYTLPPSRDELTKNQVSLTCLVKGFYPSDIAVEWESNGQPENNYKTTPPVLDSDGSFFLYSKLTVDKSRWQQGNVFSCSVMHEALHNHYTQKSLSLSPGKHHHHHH
Test [4] concerns the target Canine/Human IL4R-ECD_C-HuFc_His6_Hybrid1 (canine/human hybrid). Described as above.
The target of test [5] is Murine IL4R-ECD_C-HuFc_His6 (processed) (murine). The experiment in a line: Western blot, reducing and non-reducing SDS-PAGE. The procedure:
(§1) Cross-reactivity of Clone I antibody to feline, equine, murine, and human IL4R was also investigated. Canine IL4R-ECD_C-HuFc_His6 (SEQ ID NO: 109), feline IL4R-ECD_C-HuFc_His6 (SEQ ID NO: 111), equine IL4R-ECD_C-HuFc_His6 (SEQ ID NO: 113), murine IL4R-ECD_C-HuFc_His6 (SEQ ID NO: 115), and human IL4R-ECD_C-HuFc_His6 (SEQ ID NO: 117) (0.1 μg/lane) were each separated by SDS-PAGE under reducing (+DTT) or non-reducing (−DTT) conditions. The proteins were transferred to PVDF membranes and the blots were probed with Clone I antibody (0.3 μg/mL) and visualized by goat anti-mouse IgG-HRP (FIG. 4A). As a control, the blot was stripped and probed with goat anti-human IgG Fc-HRP to visualize the presence of the IL4R-ECD proteins (FIG. 4B). Clone I antibody immunoreacted with canine IL4R-ECD_C-HuFc_His6 and to a lesser extent with feline IL4R-ECD_C-HuFc_His6 under non-reducing conditions (FIG. 4A, lanes 5 and 1, respectively).

Test [6] concerns the target Equine IL4R-ECD_C-HuFc_His6 (processed) (equine). The experiment in a line: Western blot, reducing and non-reducing SDS-PAGE. The procedure:
as §1

The target in test [7] is Human IL4R-ECD_C-HuFc_His6 (processed) (human). The experiment in a line: Western blot, reducing and non-reducing SDS-PAGE. The procedure: as §1
Sequence of Human IL4R-ECD_C-HuFc_His6 (processed) (human) (chain, as listed by the source limits assumed): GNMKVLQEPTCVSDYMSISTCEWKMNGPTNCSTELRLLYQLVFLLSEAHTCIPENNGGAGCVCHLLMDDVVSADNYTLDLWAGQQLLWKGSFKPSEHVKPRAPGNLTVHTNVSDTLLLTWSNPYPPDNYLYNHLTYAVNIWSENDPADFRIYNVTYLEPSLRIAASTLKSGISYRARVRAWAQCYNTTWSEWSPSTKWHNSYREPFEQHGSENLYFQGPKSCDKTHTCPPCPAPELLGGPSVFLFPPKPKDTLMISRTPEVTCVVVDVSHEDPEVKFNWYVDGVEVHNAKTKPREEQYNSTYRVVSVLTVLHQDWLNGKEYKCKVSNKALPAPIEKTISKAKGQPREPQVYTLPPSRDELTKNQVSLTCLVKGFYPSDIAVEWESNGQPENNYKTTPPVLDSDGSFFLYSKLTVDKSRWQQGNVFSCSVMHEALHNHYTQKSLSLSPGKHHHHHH

Sequence of Equine IL4R-ECD_C-HuFc_His6 (processed) (equine) (chain, as listed by the source limits assumed): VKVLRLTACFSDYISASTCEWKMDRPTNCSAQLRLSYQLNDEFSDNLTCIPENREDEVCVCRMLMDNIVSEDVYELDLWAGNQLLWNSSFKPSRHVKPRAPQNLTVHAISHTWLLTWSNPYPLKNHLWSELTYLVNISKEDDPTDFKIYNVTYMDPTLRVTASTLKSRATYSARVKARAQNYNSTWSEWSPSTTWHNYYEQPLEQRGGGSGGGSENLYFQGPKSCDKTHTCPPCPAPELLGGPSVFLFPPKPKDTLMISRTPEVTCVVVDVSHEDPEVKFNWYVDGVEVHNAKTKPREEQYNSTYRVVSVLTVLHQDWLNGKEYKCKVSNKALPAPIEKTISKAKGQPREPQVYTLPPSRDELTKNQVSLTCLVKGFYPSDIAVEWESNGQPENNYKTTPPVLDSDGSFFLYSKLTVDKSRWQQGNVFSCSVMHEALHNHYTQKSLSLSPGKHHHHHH
Sequence of Canine/Human IL4R-ECD_C-HuFc_His6_Hybrid1 (canine/human hybrid) (chain, as listed by the source limits assumed): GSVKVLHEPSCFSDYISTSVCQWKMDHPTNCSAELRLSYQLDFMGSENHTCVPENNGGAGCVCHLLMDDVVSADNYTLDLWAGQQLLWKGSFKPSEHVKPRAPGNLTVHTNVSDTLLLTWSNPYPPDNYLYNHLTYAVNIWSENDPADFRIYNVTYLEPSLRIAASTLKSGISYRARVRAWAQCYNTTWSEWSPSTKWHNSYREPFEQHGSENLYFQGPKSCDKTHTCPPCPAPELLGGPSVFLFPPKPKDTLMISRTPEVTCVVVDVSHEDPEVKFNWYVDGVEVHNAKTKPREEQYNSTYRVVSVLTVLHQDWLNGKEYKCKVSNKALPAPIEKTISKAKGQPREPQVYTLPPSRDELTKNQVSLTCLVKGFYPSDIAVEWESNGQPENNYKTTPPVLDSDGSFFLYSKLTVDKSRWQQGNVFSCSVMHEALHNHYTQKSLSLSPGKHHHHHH
Sequence of Murine IL4R-ECD_C-HuFc_His6 (processed) (murine) (chain, as listed by the source limits assumed): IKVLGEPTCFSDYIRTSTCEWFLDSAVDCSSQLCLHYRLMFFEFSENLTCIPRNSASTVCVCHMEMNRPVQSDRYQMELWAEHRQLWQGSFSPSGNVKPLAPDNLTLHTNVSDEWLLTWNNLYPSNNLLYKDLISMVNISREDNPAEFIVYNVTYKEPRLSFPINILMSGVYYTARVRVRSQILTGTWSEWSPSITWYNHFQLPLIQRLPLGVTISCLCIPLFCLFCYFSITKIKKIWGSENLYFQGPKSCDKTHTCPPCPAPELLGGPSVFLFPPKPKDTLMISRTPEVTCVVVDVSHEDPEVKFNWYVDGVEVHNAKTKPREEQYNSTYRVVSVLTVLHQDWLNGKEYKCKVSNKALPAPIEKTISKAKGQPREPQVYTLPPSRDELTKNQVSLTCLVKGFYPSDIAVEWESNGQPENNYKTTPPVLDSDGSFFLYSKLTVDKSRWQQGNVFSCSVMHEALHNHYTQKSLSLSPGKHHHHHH

B1: Clone I antibody (mouse monoclonal anti-canine IL4R) (antibody, mouse IgG1, kappa, V domains shown)
VH: EVQLQQSGPELVKPGASVKMSCKASGYTFTSYVMHWVKQKPGQGLEWIGYINPNNDGTFYNGKFKGKATLTSDKSSSTAYMELSSLTSEDSAVYYCAAFYYGFAYWGQGTLVTVSA
VL: DIVLTQSPSSLSASLGERVSLTCRASQEISGYLSWLQQKPDGTIKRLIYAASTLDSGVPKRFSGSRSGSDFSLTISSLESEDFADYYCLQYASYPWTFGGGAKLEIKR
notes: Mouse IgG; also called anti-IL4R-mAb Clone I
With B1, the Kd in test [1] stood at 1.1 nM. In addition, the binding result in test [2] is given as “binds”; in test [3], “binds”; in test [4], “binds”; in test [5] it was “no binding (tested: Clone I 0.3 ug/mL; 0.1 ug/lane)”; in test [6] it was “no binding (tested: Clone I 0.3 ug/mL; 0.1 ug/lane)”; in test [7] it was “no binding (tested: Clone I 0.3 ug/mL; 0.1 ug/lane)”.

By Kd is commonly meant the free concentration of one partner at which half of the binding sites on the other are occupied at equilibrium, for simple one-to-one binding.
